The values below come from the supplement of paper PMC12042874.

± gives the uncertainty stated by the source.

A short description of one data set: amyloid nucleation score (Sup35N fusion, yeast selection) (log enrichment); library NNK1; higher = more nucleation; inactive = no reads after selection. The procedure, abridged: (§1)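 Psi-negative yeast expressed Sup35N fused to peptides of 20 random codons. They were induced 24 hours with 100 μM copper sulfate, grown 7 days at 30°C without adenine and uracil, and their plasmid inserts from input and output were Illumina-sequenced. The nucleation score is the DiMSum log enrichment of output over input reads, centred on the mode score of non-aggregating sequences. Sequences with under 100 input reads were excluded.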
Take STSILGANFALVWSEVVTVS: the amyloid nucleation score was -0.023 ± 0.66.

Substance GTRCMALALGLHIYIFIRGG returned an amyloid nucleation score of -0.161 ± 0.46.

As for VSMATAVF, the amyloid nucleation score was found to be 1.22 ± 0.64.

MFVFFSTMSIR: the amyloid nucleation score entry was “inactive”.

For TIALM, the amyloid nucleation score was determined as 0.335 ± 0.33.

For YWRNKGVVCGLCYDIVR, the amyloid nucleation score is -0.019 ± 0.97.

As to QVGPVREHEHKVLAGLSMDW, the amyloid nucleation score worked out at 0.498 ± 0.38.

For TRNLMPSRSFG, the amyloid nucleation score is 2.08 ± 0.28.

KVSVRYSNYSCVYFVYCRW: the amyloid nucleation score came to 0.279 ± 0.27.

Substance MRLCPEPASKSDMPFSRDLR yielded an amyloid nucleation score of 0.268 ± 1.4.

As to WTSIV, the amyloid nucleation score stood at 1.38 ± 0.47.

Turning to VYRLRLVFKVSYFIIECHKG, the amyloid nucleation score was -0.851 ± 0.4.

As for KNLGTRGHSMY, the amyloid nucleation score was -0.164 ± 0.31.

The substance RALFSIHNTAEGLSERWAAL came in with an amyloid nucleation score of 0.58 ± 1.2.

In turn, QLPCDRISSDALYRMWGLV yielded an amyloid nucleation score of -1.41 ± 0.91.

YLFGGSWDCGLYISGIPCWS: the amyloid nucleation score is 1 ± 0.48.

WFTDLRNRGVVNTYTPIV: the amyloid nucleation score was -0.131 ± 0.29.

As to SHPSKRLRTSKNVCACATNP, the amyloid nucleation score is -0.12 ± 0.4.

For the substance SLFLGVVHFAVRVSLGSVWG, the amyloid nucleation score is -0.771 ± 0.82.

Take FDGKLW: the amyloid nucleation score is -0.53 ± 0.61.

VTFLFNFWHVFC: the amyloid nucleation score was found to be 6.95 ± 0.074.

As for NVLVGFI, the amyloid nucleation score was -0.851 ± 0.56.

In the case of VYKFIFAYYYSEDVPFNRPL, the amyloid nucleation score entry is “inactive”.

Substance NALILRGLVCLSWKLELTHF displayed an amyloid nucleation score of -0.866 ± 1.9.

The substance FNVHNWAQRTVEHGETLFRD showed an amyloid nucleation score of 1.57 ± 0.45.

For NYYLECWYSCMGNTETSSKG, the amyloid nucleation score came to 0.212 ± 0.53.

For the substance TSQVSGRHVVSIDWTIWLSL, the amyloid nucleation score was determined as 0.616 ± 0.66.

The substance LLAPAS registered an amyloid nucleation score of 0.032 ± 0.35.

As to NRSRWPIHGFLIANKSPLQF, the amyloid nucleation score was 0.486 ± 0.38.

In turn, SEGMCIKLPVALNYSYVHLG came in with an amyloid nucleation score of 3.36 ± 0.088.

Consider HKLDQLKASRLPSLVNWRVG, for which the amyloid nucleation score was 1.12 ± 0.7.

As to LYHRSSLGMVSVVGDSMSDT, the amyloid nucleation score stood at 0.596 ± 1.2.

In the case of ASYMYAPSIFYSERLKWNPS, the amyloid nucleation score stood at 0.226 ± 0.78.

Take FRMRHQERMAGTPVGMGLYC: the amyloid nucleation score is -0.327 ± 0.69.

Regarding SVIAVSLETQVIAWVRYYPK, the amyloid nucleation score was -0.315 ± 0.55.

TWCIAVVSEILLLHI: the amyloid nucleation score entry was “inactive”.

The substance RGGMIPGYTPAMYHWMLFKS had an amyloid nucleation score of 0.185 ± 0.47.

On to HHLTRTTPYPTSTWLAQLLS, for which the amyloid nucleation score was 0.994 ± 0.63.

ISPYPPRHLLQWVCKGE registered an amyloid nucleation score of 0.034 ± 0.68.

With LSERYVSTGVARDSGNAKVG, the amyloid nucleation score was 3.88 ± 0.11.

Consider FPDLYVWRCWKSQGHSWHGV, for which the amyloid nucleation score was found to be 0.573 ± 0.52.

As to HKCDSVKVGGSCNKTAYSRC, the amyloid nucleation score is 0.787 ± 0.59.

SQLWCLTNKHRKQQRKAGHY: the amyloid nucleation score turned out to be 0.027 ± 0.53.

The substance LIYFKGSS gave an amyloid nucleation score of 0.399 ± 0.79.

With FKYSFMIYNLARSVCYCTVS, the amyloid nucleation score is -0.002 ± 1.4.

Substance IRGFSSSISLWWVDGTVANV yielded an amyloid nucleation score of -0.422 ± 0.49.

With LDILDLVRTNVIRTKKPFEI, the amyloid nucleation score is -0.348 ± 0.83.

Substance LSLTRAMGIYFRWVLSRSFG yielded an amyloid nucleation score of -0.837 ± 2.4.

The substance YWGFGYPMFLNINMCLTSPE yielded an amyloid nucleation score of 6.21 ± 0.091.

The substance TGYVIGWVSWTSWWEMGLYR returned an amyloid nucleation score of -2.43 ± 2.4.

Substance TVHFSDWMIPNTRLEATCGM registered an amyloid nucleation score of 0.158 ± 0.31.

Consider KAFWSLCYVERGRWYGAVNA, for which the amyloid nucleation score is 0.128 ± 1.

Consider SIVIIG, for which the amyloid nucleation score was -0.155 ± 0.7.

As for GRIQCHYGLSVYNGFESGTG, the amyloid nucleation score stood at 0.279 ± 0.83.

In turn, QRFHFLNRL registered an amyloid nucleation score of -0.411 ± 1.1.

ININRNK: the amyloid nucleation score entry is “inactive”.

For LLTSMSSGLVDYR, the amyloid nucleation score entry is “inactive”.

Turning to GKTISGL, the amyloid nucleation score came to 0.239 ± 0.44.

ERKRTFY displayed an amyloid nucleation score of 0.536 ± 0.41.

Consider HLICRFVHVNHCLVQQPKGS, for which the amyloid nucleation score worked out at 1.37 ± 0.33.

As to DCRFNRGGFNNVR, the amyloid nucleation score stood at 0.514 ± 0.31.

In turn, HRVVSVRRCMKHPLSMERVA had an amyloid nucleation score of 0.447 ± 0.51.

In turn, MAFLYFMFILFHARCLIRLP had an amyloid nucleation score of -0.177 ± 0.65.

Substance VRENLNMLEIHRLGGVKKCV displayed an amyloid nucleation score of -1.06 ± 0.95.

For the substance WCVLTSMEAYWFGLSRN, the amyloid nucleation score worked out at 0.869 ± 0.54.

In turn, YGDGMGPWCYCWAFAEPRRS returned an amyloid nucleation score of 0.114 ± 1.1.

Consider PREVVAQKHCSLLQFDLLYS, for which the amyloid nucleation score is -0.556 ± 0.48.

On to WRMFGGRSEQSFIVPCRLLG, for which the amyloid nucleation score came to 0.535 ± 1.2.

YVSIYGQWVSSSCWTRRAYN: the amyloid nucleation score is 0.415 ± 0.32.

AHKWCVVCQTV came in with an amyloid nucleation score of 0.338 ± 0.52.

The substance DCYNLKQWRSCCDLAVASGG registered an amyloid nucleation score of 0.24 ± 0.88.

Consider ETFNWLSCIVRRSQKYAEET, for which the amyloid nucleation score is -0.242 ± 1.2.

Take LQGCGYYKFGITEEWH: the amyloid nucleation score stood at 0.415 ± 0.78.

Substance PILKQNHWRDFGNCLAKRRE gave an amyloid nucleation score of -0.281 ± 0.82.

In the case of IYVYWSDISV, the amyloid nucleation score amounted to 0.907 ± 0.42.

LMSWEL yielded an amyloid nucleation score of 0.462 ± 1.2.

WLETRP yielded an amyloid nucleation score of -0.226 ± 0.33.

As to PALNILNHYLLCKDPLFVRV, the amyloid nucleation score stood at 0.348 ± 0.37.

With VNAPST, the amyloid nucleation score came out at 0.413 ± 1.1.

RNKMMWLIICQGPPYRAWSP: the amyloid nucleation score was determined as 5.07 ± 0.07.

For the substance PCYWQPPRRVAVATLSAAAL, the amyloid nucleation score is -0.312 ± 0.49.

As for QIIPTRFGWFSNRGCVLGSY, the amyloid nucleation score came out at 1.08 ± 0.38.

IRVSFCWSNLHNNYNSGRAT yielded an amyloid nucleation score of 5.02 ± 0.085.

Turning to IMLVYMKTLGTM, the amyloid nucleation score was found to be 3.7 ± 0.071.

With HSKRYCGACDLGYLCYRCNI, the amyloid nucleation score was -0.333 ± 0.24.

On to VFNLMI, for which the amyloid nucleation score was found to be 0.381 ± 0.28.

As to VLSRLCLYVSVMSRDNKYGS, the amyloid nucleation score was 2.38 ± 0.46.

As for CSRTRRSHSIECACCKYIFA, the amyloid nucleation score is -0.343 ± 0.47.

Consider IKIIAFFWLCSYHGWISWKS, for which the amyloid nucleation score was -1.5 ± 1.1.

In the case of PQRQFDLIVD, the amyloid nucleation score was found to be 0.563 ± 0.81.

RPVWHSFHMVFWNSASY gave an amyloid nucleation score of 0.172 ± 0.45.

For YFWASHISSVYLNLETCDTM, the amyloid nucleation score is -0.417 ± 0.42.

The substance SEWDFGDCENFKVSYLVVTQ had an amyloid nucleation score of -0.408 ± 0.4.

LTEYFSSVVEYDGYPVLSE registered an amyloid nucleation score of -0.91 ± 1.

As to WVQGRRTFLVGWRGSQRGPI, the amyloid nucleation score was -0.995 ± 0.81.

As for KPLEDFVDYKMMLMIHEEVC, the amyloid nucleation score amounted to 0.763 ± 0.97.

Take VRVKLKGLFGFNWDG: the amyloid nucleation score was found to be 0.36 ± 1.2.

In the case of VVTQCLLAAAVHLYCNCHHM, the amyloid nucleation score was found to be 6.972 ± 0.045.

Regarding KYHRFFAG, the amyloid nucleation score was -1.02 ± 1.8.

As for MLACDVISPFCYVNWKRLCR, the amyloid nucleation score was found to be 2.43 ± 0.15.

Substance YVVWDICKRVLLQWRYPPFS came in with an amyloid nucleation score of -0.077 ± 1.7.

The substance VVCRCTYFRLITGDSSL registered an amyloid nucleation score of -0.136 ± 0.8.

In turn, VNMRASSSMLTTVVAFIFPG yielded an amyloid nucleation score of 6.521 ± 0.047.

With FLKLPFTKSSWSF, the amyloid nucleation score is -0.317 ± 1.4.

FNKYYMFEST came in with an amyloid nucleation score of -0.038 ± 0.33.

As for RARDIKWGCLFVCLTCMSTG, the amyloid nucleation score was 3.76 ± 0.067.

Take LSYEDSSFNFLNSFYIKSWW: the amyloid nucleation score was -0.161 ± 0.5.

On to WFVNIEGREEWKYHKGCEPK, for which the amyloid nucleation score came out at 0.758 ± 0.49.

Turning to VLKPSLGGCLSHSVMLKLSD, the amyloid nucleation score result is “inactive”.

As for SNRALMADLKERNVINTPIN, the amyloid nucleation score is -0.385 ± 1.9.

In turn, LSLNIYCMRS displayed an amyloid nucleation score of 7.155 ± 0.045.

In the case of LFILPCQVNLHECMVLCLFE, the amyloid nucleation score worked out at 5.91 ± 0.06.

VMVQANYMSSSSRSAYLSNM: the amyloid nucleation score result was “inactive”.

As to WLWIRFIAVTSSSVEIRANS, the amyloid nucleation score was -0.834 ± 0.54.

WNNGVLLNRV showed an amyloid nucleation score of 0.792 ± 0.41.

For RPHECRSWAPVRALSGDAHL, the amyloid nucleation score amounted to 2.91 ± 0.13.

The substance PNTYGGIMECYV returned an amyloid nucleation score of -0.233 ± 0.42.

Turning to IELVNYFHYFRWVGLLDRRC, the amyloid nucleation score was -0.077 ± 0.38.

Regarding SMCNEVDGTDGYAAIGLYMY, the amyloid nucleation score was -1.65 ± 2.4.

Consider STILKWRSWLARFLIHMVVV, for which the amyloid nucleation score was 0.659 ± 0.47.

The substance TFADNF registered an amyloid nucleation score of -1.28 ± 1.1.

As for FNIYSQMYIW, the amyloid nucleation score was determined as 5.32 ± 0.066.

The nature of another data set: amyloid nucleation score (Sup35N fusion, yeast selection) (log enrichment); library NNK2; higher = more nucleation; inactive = no reads after selection. The procedure, abridged:
as §1
Consider YSSPGSSPAFQRFGVVRRMN, for which the amyloid nucleation score entry is “inactive”.

For SLHRAVYMGVKEYAILTEYG, the amyloid nucleation score turned out to be 0.127 ± 0.35.

Consider FTASFFP, for which the amyloid nucleation score turned out to be 0.05 ± 0.26.

In turn, ITSSRDDVSYTVGPKDMFES yielded an amyloid nucleation score of 1.17 ± 0.37.

TGNVCQDEVNAIGRFP had an amyloid nucleation score of -0.864 ± 0.38.

Regarding VSTRSLF, the amyloid nucleation score entry was “inactive”.

Regarding WYTDPDSDVAHYFAPQLK, the amyloid nucleation score is -0.693 ± 1.1.

As for PPVLLISKSSFMQLGCSLST, the amyloid nucleation score is -0.587 ± 1.

Regarding AMPSRDLITR, the amyloid nucleation score was determined as 2.52 ± 0.075.

The substance HNYVINESFFFLVVVYVDAG had an amyloid nucleation score of 7.6 ± 0.037.

Substance KMWIRLLRSEIPKCVGLTVS yielded an amyloid nucleation score of 0.66 ± 0.23.

NLHLSGKMGSPTFRVRIYAH: the amyloid nucleation score entry is “inactive”.

In the case of HNPLS, the amyloid nucleation score entry is “inactive”.

Take FFLWVGTYSVVPGLCVYMS: the amyloid nucleation score worked out at 3.78 ± 0.11.

RDARNKFCDGLTVGILGACM yielded an amyloid nucleation score of -0.368 ± 0.29.

For GVCSGFPFVRFRNIYIRRLA, the amyloid nucleation score is 3.22 ± 0.078.
